The numbers were not newly measured in patent publication US20150290107A1, “COMPOSITIONS FOR TREATMENT OF XEROSTOMIA AND FOR TOOTH TREATMENT” (3 IN 1 DENTAL PLLC, priority 2013, published 2015), which cites them from elsewhere.

This series has as its system lean meat. As to conditions: usual grade.

B1: Papain (protein, UniProt P00784 134-345, looked up)
Papain: IPEYVDWRQKGAVTPVKNQGSCGSCWAFSAVVTIEGIIKIRTGNLNEYSEQELLDCDRRSYGCNGGYPWSALQLVAQYGIHYRNTYPYEGVQRYCRSREKGPYAAKTDGVRQVQPYNEGALLYSIANQPVSVVLEAAGKDFQLYRGGIFVGPCGNKVDHAVAAVGYGPNYILIKNSWGTGWGENGYIRIKRGTGNSYGVCGLYTSSFYPVKN
notes: Protease enzyme; white or grayish-white, slightly hygroscopic powder
Regarding B1, the “potency: digesting times its weight of lean meat” value is given as around 35 times its weight.
